Residue numbers refer to the chain shown, from its start. In names and notes the source's numbering stands.
What was measured:
[1] = biological target: mouse vascular endothelial growth factor receptor-2 Fc chimera (Flk-1-Fc) (mouse) (UniProt P35918); assay: radioactive equilibrium binding
[2] = biological target: VEGFR-2 (KDR) of HUVEC cells (human, UniProt P35968 20-1356); assay: cell-based or functional assay
[3] = biological target: human KDR/EpoR fusion (phKE8) on Ba/F3-KDR cells (human, UniProt P35968 20-764; P19235 251-508, limits assumed); assay: cell-based or functional assay
[4] = biological target: T1, flk-1/EpoR fusion (pmKE2) on CHO-Flk or Ba/F3-Flk cells (mouse; human, UniProt P35918 20-762; P19235 251-508, limits assumed); assay: cell-based or functional assay
T1 sequence (P35918 other isoform, or with tags, fused parts or gaps limits assumed, form in doubt): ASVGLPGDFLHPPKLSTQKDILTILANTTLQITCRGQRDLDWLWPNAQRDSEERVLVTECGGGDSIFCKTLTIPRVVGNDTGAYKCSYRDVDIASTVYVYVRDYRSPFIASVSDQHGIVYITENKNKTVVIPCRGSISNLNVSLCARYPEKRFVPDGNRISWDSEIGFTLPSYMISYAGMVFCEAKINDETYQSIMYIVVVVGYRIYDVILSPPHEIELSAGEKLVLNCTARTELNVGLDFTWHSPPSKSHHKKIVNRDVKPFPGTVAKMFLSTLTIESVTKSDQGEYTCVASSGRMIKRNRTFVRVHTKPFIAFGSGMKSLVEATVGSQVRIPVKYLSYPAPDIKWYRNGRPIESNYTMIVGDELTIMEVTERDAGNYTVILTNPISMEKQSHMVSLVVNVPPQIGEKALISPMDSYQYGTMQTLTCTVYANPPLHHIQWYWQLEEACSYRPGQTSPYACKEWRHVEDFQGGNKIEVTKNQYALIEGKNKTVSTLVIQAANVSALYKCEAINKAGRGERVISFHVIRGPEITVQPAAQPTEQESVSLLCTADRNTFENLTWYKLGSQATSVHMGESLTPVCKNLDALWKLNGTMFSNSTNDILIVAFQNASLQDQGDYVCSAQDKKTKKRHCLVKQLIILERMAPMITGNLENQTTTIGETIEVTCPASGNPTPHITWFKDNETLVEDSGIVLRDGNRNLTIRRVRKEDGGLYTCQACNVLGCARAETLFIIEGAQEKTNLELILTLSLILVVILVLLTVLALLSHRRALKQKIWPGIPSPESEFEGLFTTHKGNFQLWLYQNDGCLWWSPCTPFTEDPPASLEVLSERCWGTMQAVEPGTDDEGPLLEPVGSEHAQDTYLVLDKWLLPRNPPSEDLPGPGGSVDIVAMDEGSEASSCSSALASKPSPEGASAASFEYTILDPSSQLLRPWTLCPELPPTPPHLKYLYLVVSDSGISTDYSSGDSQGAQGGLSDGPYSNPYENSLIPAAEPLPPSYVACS

[5] = biological target: T2, human vascular endothelial growth factor receptor-2 Fc chimera (KDR-Fc) (human, UniProt P35968 20-764); assay: BIAcore, KDR-Fc immobilised on CM5 chip
T2 construct: range 1-764; also called human VEGF-R2-Fc; not shown: human IgG1 Fc
Procedure: (§1) The binding kinetics of fibronectin-based scaffold proteins binding proteins to the target was measured using BIAcore 2000 biosensor (Pharmacia Biosensor). Human and mouse VEGF-R2-Fc fusions were immobilized onto a CM5 sensor chip and soluble binding proteins were injected at concentrations ranging from 0 to 100 nM in buffer O (10 mM HEPES, 150 mM NaCl, 0.005% Tween 20, pH 7.4). Sensorgrams were obtained at each concentration and were evaluated using a program, BIA Evaluation 2.0 (BIAcore), to determine the rate constants […] The affinity constant, KD was calculated from the ratio of rate constants koff/kₒₙ.

[6] = biological target: T1, flk-1/EpoR fusion (pmKE2) on CHO-Flk or …; assay: flow cytometry on CHO-Flk cells, anti-His6 detection
[7] = biological target: T3, mouse vascular endothelial growth factor receptor-2 Fc chimera (Flk-1-Fc) (mouse, UniProt P35918 20-762); assay: BIAcore, Flk-1-Fc immobilised on CM5 chip
T3 construct: bought from R&D Systems; also called mouse VEGF-R2-Fc; Fc part of the bought chimera not given, not described
T3 sequence (P35918 20-762, change not shown): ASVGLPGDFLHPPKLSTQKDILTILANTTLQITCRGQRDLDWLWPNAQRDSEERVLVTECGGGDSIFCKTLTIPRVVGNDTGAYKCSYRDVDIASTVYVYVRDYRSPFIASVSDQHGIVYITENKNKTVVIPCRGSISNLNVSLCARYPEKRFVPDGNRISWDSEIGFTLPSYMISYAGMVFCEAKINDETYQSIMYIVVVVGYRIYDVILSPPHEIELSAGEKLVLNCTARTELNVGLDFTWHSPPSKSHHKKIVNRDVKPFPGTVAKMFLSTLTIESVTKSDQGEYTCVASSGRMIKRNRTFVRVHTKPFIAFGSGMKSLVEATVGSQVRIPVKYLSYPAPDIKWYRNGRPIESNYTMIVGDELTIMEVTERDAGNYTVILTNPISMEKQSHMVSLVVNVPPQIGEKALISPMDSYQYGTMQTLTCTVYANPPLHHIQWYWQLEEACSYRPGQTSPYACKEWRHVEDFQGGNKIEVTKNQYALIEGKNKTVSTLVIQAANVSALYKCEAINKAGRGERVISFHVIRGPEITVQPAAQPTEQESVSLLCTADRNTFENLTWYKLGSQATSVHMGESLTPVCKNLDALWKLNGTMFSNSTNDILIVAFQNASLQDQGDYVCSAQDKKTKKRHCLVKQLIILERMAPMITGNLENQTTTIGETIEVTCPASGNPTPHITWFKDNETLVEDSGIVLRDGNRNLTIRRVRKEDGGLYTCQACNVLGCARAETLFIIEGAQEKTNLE
Procedure: as §1

[8] = biological target: T4, full-length human KDR on CHO-KDR cells (human, UniProt P35968 20-1356); assay: flow cytometry on CHO-KDR cells, anti-His6 detection
T4 construct: whole, on cells; stably transfected CHO-K1 cells
Procedure: The functionality of KDR and Flk-1 binding molecules in a cell culture model system was evaluated with E. coli produced binding molecules.
Binding of fibronectin-based scaffold protein to cell-surface KDR and Flk-1 was analyzed simultaneously on VEGF-R2-expressing and control cells by flow cytometry. CHO-pcDNA3 cells (control) were released from their dishes with trypsin-EDTA, washed in Dulbecco's PBS without calcium and magnesium (D-PBS⁻; Invitrogen), and stained for 30 minutes at 37° C. with 1.5 μM CMTMR (5-(and-6)-(((4-chloromethyl)benzoyl)amino)-tetramethylrhodamine) (Molecular Probes). The cells were washed in D-PBS⁻ and incubated for a further 30 minutes at 37° C., and then resuspended in blocking buffer (D-PBS710% fetal bovine serum) on ice. CHO-KDR or CHO-Flk cells were treated identically except that CMTMR was omitted. 75,000 of CMTMR-stained CHO-pcDNA3 cells were mixed with an equal number of unstained CHO-KDR or CHO-Flk cells in each well of a V-bottom 96-well plate. All antibodies and fibronectin-based scaffold proteins were diluted in 25 μl/well of blocking buffer, and each treatment was conducted for 1 hour at 4° C. Cell mixtures were stained with His₆-tagged fibronectin-based scaffold proteins, washed twice with cold D-PBS⁻, and then treated with 2.5 μg/ml anti-His₆ MAb (R&D Systems), washed, and stained with 4 μg/ml Alexa Fluor 488-conjugated anti-mouse antibody (Molecular Probes). For cells treated with an anti-KDR mouse monoclonal antibody (Accurate Chemical, Westbury, N.Y.) or an anti-flk-1 goat polyclonal antibody (R&D Systems), the anti-His₆ step was omitted, and antibody binding was detected with the species-appropriate Alexa Fluor 488 conjugated secondary antibody (Molecular Probes). Following staining, cells were resuspended in 200 μl/well D-PBS⁻/1% FBS/1 μg/ml 7-aminoactinomycin D (7-AAD; Molecular Probes) and analyzed by flow cytometry on a FACSCalibur (Becton Dickinson, San Jose, Calif.) equipped with a […].

[9] = biological target: T5, human vascular endothelial growth factor receptor-2 Fc chimera (KDR-Fc) (human, UniProt P35968 20-764); assay: BIAcore, 20 nM KDR-Fc over immobilized VEGF165 in the presence of the soluble binder; blocked ligand VEGF165
T5 construct: range 1-764; also called human VEGF-R2-Fc; hKDR; not shown: human IgG1 Fc
Procedure: For inhibition experiments, human VEGF₁₆₅ was immobilized on a surface of CM-5 chip and KDR-Fc was injected at a concentration of 20 nM in the presence of different concentrations of soluble binding proteins ranging from 0 to 100 nM. IC₅₀ was determined at a concentration when only 50% of KDR-Fc binding to the chip was observed.

[10] = biological target: T3, mouse vascular endothelial growth …; assay: radioactive equilibrium binding assay, 1 nM Flk-1-Fc, percent bound, average of 3 experiments

Chain of mouse vascular endothelial growth factor receptor-2 Fc chimera (Flk-1-Fc) (mouse) (P35918 20-762, change not shown): as above

B1: EGE11 (FG loop …) (designed binder)
chain: EVVAATPTSLLISWRHPHFPTRYYRITYGETGGNSPVQEFTVPLQPPTATISGLKPGVDYTITGYAVTMGKNDRELLTPISINYRT
Q: With B1 as the binder, how does the Binding to 1 nM Flk-1, % [1] read?
A: 1%

B2: F6 (designed binder)
chain: B1 chain with M69V, G70E, K71Q, D73G, E75V, L77M
Q: How did the Binding to 1 nM Flk-1, % [1] turn out when B2 was run?
A: 2%

B3: F10 (Table 2) (designed binder)
chain: B1 chain with G70A, K71P, D73G
Q: How did the Binding to 1 nM Flk-1, % [1] turn out when B3 was run?
A: 1%

B4: E19, E. coli-expressed, His6 (designed binder)
chain: EVVAATPTSLLISWRHPHFPTRYYRITYGETGGNSPVQEFTVPLQPPTATISGLKPGVDYTITGYAVTVERNGRHLMTPISINYRTEIDKPSQHHHHHH
notes: soluble E. coli form; N-terminal residues added for expression not described
Q: What does the source list for B4?
A: Inhibition of VEGF-induced proliferation of HUVEC cells (IC50, nM) [2]: 11.8 nM; Inhibition of VEGF-induced proliferation, Ba/F3-KDR (IC50, nM) [3]: 12.3 nM; Inhibition of VEGF-induced proliferation, Ba/F3-Flk (IC50, nM) [4]: 5.8 nM; Kd [5]: 0.06 nM; koff [5]: 1.7e-05 s⁻¹; kon [5]: 300000 M⁻¹ s⁻¹; EC50 [6]: 5.3 nM; Kd [7]: 0.34 nM; koff [7]: 0.000223 s⁻¹; kon [7]: 660000 M⁻¹ s⁻¹; EC50 [8]: 7.6 nM

B5: E6, E. coli-expressed, His6 (designed binder)
chain: B4 chain with V69D, E70G, R71W, H75L, M77S, T78I
notes: as for B4
Q: With B5 as the binder, how does the Kd [5] read?
A: 0.08 nM

Q: And the koff [5]?
A: 6.7e-05 s⁻¹

Q: And the kon [5]?
A: 890000 M⁻¹ s⁻¹

Q: What about the Kd [7] of the same binder?
A: 2.02 nM

Q: And the koff [7]?
A: 0.00136 s⁻¹

Q: What about the kon [7] of the same binder?
A: 670000 M⁻¹ s⁻¹

B6: E18, E. coli-expressed, His6 (designed binder)
chain: B4 chain with H75E, M77N
notes: as for B4
Q: What does the source list for B6?
A: Inhibition of VEGF-induced proliferation of HUVEC cells (IC50, nM) [2]: 12.8 nM; Inhibition of VEGF-induced proliferation, Ba/F3-KDR (IC50, nM) [3]: 5.4 nM; Inhibition of VEGF-induced proliferation, Ba/F3-Flk (IC50, nM) [4]: 2.4 nM; Kd [5]: 0.46 nM; koff [5]: 0.000121 s⁻¹; kon [5]: 260000 M⁻¹ s⁻¹; EC50 [6]: 0.9 nM; Kd [7]: 0.33 nM; koff [7]: 0.000195 s⁻¹; kon [7]: 600000 M⁻¹ s⁻¹; EC50 [8]: 4.2 nM

B7: E29, E. coli-expressed, His6 (designed binder)
chain: B4 chain with H75V
notes: as for B4
Q: Which results are given for B7?
A: Inhibition of VEGF-induced proliferation of HUVEC cells (IC50, nM) [2]: 8.4 nM; Inhibition of VEGF-induced proliferation, Ba/F3-KDR (IC50, nM) [3]: 10 nM; Inhibition of VEGF-induced proliferation, Ba/F3-Flk (IC50, nM) [4]: 4.7 nM; Kd [5]: 0.19 nM; koff [5]: 7e-05 s⁻¹; kon [5]: 360000 M⁻¹ s⁻¹; EC50 [6]: 0.6 nM; Kd [7]: 0.37 nM; koff [7]: 0.000288 s⁻¹; kon [7]: 790000 M⁻¹ s⁻¹; EC50 [8]: 2.3 nM

B8: M5FL, E. coli-expressed, His6 (designed binder)
chain: VSDVPRDLEVVAATPTSLLISWRHPHFPTRYYRITYGETGGNSPVQEFTVPLQPPLATISGLKPGVDYTITVYAVTKERNGRELFTPISINYRTEIDKPSQHHHHHH
notes: soluble E. coli form with Ser100
Q: Which “Inhibition of VEGF-induced proliferation of HUVEC cells (IC50, nM)” value [2] does the source give for B8 here?
A: 8.5 nM

Q: And the “Inhibition of VEGF-induced proliferation, Ba/F3-KDR (IC50, nM)” value [3]?
A: 3.9 nM

Q: What about the “Inhibition of VEGF-induced proliferation, Ba/F3-Flk (IC50, nM)” value [4] of the same binder?
A: 5.1 nM

Q: And the Kd [5]?
A: 0.89 nM

Q: What about the koff [5] of the same binder?
A: 9.2e-05 s⁻¹

Q: What about the kon [5] of the same binder?
A: 100000 M⁻¹ s⁻¹

Q: And the Kd [7]?
A: 2.1 nM

Q: What about the koff [7] of the same binder?
A: 0.000582 s⁻¹

Q: What about the kon [7] of the same binder?
A: 280000 M⁻¹ s⁻¹

B9: VR28, E. coli-expressed, His6 (designed binder)
chain: B8 chain with L56T, V72G, K77V, E78A, R79Q, G81D, R82H, F85I
notes: soluble E. coli form; N-terminal Met not described
Q: How did the Kd [5] turn out when B9 was run?
A: 13 nM

Q: And the koff [5]?
A: 0.00034 s⁻¹

Q: What about the kon [5] of the same binder?
A: 30000 M⁻¹ s⁻¹

B10: VR28 (designed binder)
chain: VSDVPRDLEVVAATPTSLLISWRHPHFPTRYYRITYGETGGNSPVQEFTVPLQPPTATISGLKPGVDYTITGYAVTVAQNDHELITPISINYRT
notes: 10Fn3 variant, WT N-terminus; also called VR28 (I69T)
Q: For B10, which “IC50 (read off the curve)” value [9] is on record?
A: ~20 nM

B11: K1 (designed binder)
chain: B1 chain with K71L, N72Y, D73G, R74H
notes: Del 1-8; in vitro translated, Flag tag
Q: Does B11 bind [10]?
A: no binding (tested: 1 nM Flk-1-Fc)

B12: K6 (designed binder)
chain: B1 chain with M69D, N72D, D73G, E75V
notes: as for B11
Q: Does B12 bind [10]?
A: no binding (tested: 1 nM Flk-1-Fc)

B13: K9 (designed binder)
chain: B1 chain with M69F, K71L, N72Y, D73G, R74K, T78I
notes: as for B11
Q: Does B13 bind [10]?
A: no binding (tested: 1 nM Flk-1-Fc)

B14: K10 (designed binder)
chain: B1 chain with M69T, K71P, E75L, L77F, T78V
notes: as for B11
Q: Does B14 bind [10]?
A: no binding (tested: 1 nM Flk-1-Fc)

B15: K12 (designed binder)
chain: B1 chain with M69D, G70V, K71Y, R74H, L76I, L77K
notes: as for B11
Q: Does B15 bind [10]?
A: no binding (tested: 1 nM Flk-1-Fc)

B16: K13 (designed binder)
chain: B1 chain with M69L, G70A, K71L, N72K, D73G, R74H
notes: as for B11
Q: Does B16 bind [10]?
A: no binding (tested: 1 nM Flk-1-Fc)

B17: K14 (designed binder)
chain: B1 chain with M69R, G70E, K71E, R74H, T78I
notes: as for B11
Q: Does B17 bind [10]?
A: no binding (tested: 1 nM Flk-1-Fc)

B18: K15 (designed binder)
chain: B1 chain with M69E, G70V, K71H, N72H, L76I, L77K
notes: as for B11
Q: Does B18 bind [10]?
A: no binding (tested: 1 nM Flk-1-Fc)
